Results published in paper PMC4207793.

Target: trimerized sTNFRII-gAD fusion protein (UniProt P20333)
Assay: AUC; ultracentrifuge analysis of the purified trimerized sTNFRII-gAD

trimerized sTNFRII-gAD fusion protein (from UniProt P20333 23-257)
stoichiometry N: 3
